Laboratory results as given in patent US20120107299.

System: GST protein [GST: P08515]
Sequence (P08515 whole entry): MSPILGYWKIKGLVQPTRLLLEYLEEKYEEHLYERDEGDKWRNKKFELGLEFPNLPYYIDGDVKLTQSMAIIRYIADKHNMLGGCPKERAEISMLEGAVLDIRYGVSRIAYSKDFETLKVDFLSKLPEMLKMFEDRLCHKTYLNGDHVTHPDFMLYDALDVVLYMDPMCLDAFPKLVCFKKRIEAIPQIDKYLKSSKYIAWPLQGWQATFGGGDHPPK

FLAG-PTEN
in vitro dephosphorylation of PTEN, Western blot with anti-PTEN antibodies specific to each phosphorylation: dephosphorylation of PTEN was not recognized in the GST protein
